For the assay, the target named is HAUSP^62–205 (HAUSP TRAF domain) (UniProt Q93009). Nature of the assay: ITC. (In general: In ITC the heat of successive injections is recorded.)
Sequence of HAUSP^62–205 (HAUSP TRAF domain) (Q93009 62-205): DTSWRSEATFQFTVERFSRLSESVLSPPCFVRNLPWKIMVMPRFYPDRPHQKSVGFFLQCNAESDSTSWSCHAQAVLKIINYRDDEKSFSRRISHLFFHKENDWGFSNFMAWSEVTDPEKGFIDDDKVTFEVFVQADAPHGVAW

Turning to “p53^355–369 peptide (from UniProt P04637 355-369)”, the Ka came out at 67000 M⁻¹.

In turn, “p53^350–364 peptide (from UniProt P04637 350-364)” came in with a Ka of 65000 M⁻¹.

The values are drawn from article PMC3589550.
